Laboratory results published in publication PMC12192683.

Target: low-density lipoprotein receptor-related protein 1 (LRP1), full-length, purified from human placenta (human) (UniProt Q07954)
Assay: SPR; Biacore 3000; receptor amine-coupled to CM5 chip; ligand flowed in HBS-P (0.01 M HEPES pH 7.4, 0.15 M NaCl, 0.005% P20) with 1 mM CaCl2, 10 ul/min, 25 C; kinetic fit to a 1:1 Langmuir model

low-density lipoprotein receptor-related protein 1 (LRP1), full-length, purified from human placenta (human), sequence (Q07954 20-4544): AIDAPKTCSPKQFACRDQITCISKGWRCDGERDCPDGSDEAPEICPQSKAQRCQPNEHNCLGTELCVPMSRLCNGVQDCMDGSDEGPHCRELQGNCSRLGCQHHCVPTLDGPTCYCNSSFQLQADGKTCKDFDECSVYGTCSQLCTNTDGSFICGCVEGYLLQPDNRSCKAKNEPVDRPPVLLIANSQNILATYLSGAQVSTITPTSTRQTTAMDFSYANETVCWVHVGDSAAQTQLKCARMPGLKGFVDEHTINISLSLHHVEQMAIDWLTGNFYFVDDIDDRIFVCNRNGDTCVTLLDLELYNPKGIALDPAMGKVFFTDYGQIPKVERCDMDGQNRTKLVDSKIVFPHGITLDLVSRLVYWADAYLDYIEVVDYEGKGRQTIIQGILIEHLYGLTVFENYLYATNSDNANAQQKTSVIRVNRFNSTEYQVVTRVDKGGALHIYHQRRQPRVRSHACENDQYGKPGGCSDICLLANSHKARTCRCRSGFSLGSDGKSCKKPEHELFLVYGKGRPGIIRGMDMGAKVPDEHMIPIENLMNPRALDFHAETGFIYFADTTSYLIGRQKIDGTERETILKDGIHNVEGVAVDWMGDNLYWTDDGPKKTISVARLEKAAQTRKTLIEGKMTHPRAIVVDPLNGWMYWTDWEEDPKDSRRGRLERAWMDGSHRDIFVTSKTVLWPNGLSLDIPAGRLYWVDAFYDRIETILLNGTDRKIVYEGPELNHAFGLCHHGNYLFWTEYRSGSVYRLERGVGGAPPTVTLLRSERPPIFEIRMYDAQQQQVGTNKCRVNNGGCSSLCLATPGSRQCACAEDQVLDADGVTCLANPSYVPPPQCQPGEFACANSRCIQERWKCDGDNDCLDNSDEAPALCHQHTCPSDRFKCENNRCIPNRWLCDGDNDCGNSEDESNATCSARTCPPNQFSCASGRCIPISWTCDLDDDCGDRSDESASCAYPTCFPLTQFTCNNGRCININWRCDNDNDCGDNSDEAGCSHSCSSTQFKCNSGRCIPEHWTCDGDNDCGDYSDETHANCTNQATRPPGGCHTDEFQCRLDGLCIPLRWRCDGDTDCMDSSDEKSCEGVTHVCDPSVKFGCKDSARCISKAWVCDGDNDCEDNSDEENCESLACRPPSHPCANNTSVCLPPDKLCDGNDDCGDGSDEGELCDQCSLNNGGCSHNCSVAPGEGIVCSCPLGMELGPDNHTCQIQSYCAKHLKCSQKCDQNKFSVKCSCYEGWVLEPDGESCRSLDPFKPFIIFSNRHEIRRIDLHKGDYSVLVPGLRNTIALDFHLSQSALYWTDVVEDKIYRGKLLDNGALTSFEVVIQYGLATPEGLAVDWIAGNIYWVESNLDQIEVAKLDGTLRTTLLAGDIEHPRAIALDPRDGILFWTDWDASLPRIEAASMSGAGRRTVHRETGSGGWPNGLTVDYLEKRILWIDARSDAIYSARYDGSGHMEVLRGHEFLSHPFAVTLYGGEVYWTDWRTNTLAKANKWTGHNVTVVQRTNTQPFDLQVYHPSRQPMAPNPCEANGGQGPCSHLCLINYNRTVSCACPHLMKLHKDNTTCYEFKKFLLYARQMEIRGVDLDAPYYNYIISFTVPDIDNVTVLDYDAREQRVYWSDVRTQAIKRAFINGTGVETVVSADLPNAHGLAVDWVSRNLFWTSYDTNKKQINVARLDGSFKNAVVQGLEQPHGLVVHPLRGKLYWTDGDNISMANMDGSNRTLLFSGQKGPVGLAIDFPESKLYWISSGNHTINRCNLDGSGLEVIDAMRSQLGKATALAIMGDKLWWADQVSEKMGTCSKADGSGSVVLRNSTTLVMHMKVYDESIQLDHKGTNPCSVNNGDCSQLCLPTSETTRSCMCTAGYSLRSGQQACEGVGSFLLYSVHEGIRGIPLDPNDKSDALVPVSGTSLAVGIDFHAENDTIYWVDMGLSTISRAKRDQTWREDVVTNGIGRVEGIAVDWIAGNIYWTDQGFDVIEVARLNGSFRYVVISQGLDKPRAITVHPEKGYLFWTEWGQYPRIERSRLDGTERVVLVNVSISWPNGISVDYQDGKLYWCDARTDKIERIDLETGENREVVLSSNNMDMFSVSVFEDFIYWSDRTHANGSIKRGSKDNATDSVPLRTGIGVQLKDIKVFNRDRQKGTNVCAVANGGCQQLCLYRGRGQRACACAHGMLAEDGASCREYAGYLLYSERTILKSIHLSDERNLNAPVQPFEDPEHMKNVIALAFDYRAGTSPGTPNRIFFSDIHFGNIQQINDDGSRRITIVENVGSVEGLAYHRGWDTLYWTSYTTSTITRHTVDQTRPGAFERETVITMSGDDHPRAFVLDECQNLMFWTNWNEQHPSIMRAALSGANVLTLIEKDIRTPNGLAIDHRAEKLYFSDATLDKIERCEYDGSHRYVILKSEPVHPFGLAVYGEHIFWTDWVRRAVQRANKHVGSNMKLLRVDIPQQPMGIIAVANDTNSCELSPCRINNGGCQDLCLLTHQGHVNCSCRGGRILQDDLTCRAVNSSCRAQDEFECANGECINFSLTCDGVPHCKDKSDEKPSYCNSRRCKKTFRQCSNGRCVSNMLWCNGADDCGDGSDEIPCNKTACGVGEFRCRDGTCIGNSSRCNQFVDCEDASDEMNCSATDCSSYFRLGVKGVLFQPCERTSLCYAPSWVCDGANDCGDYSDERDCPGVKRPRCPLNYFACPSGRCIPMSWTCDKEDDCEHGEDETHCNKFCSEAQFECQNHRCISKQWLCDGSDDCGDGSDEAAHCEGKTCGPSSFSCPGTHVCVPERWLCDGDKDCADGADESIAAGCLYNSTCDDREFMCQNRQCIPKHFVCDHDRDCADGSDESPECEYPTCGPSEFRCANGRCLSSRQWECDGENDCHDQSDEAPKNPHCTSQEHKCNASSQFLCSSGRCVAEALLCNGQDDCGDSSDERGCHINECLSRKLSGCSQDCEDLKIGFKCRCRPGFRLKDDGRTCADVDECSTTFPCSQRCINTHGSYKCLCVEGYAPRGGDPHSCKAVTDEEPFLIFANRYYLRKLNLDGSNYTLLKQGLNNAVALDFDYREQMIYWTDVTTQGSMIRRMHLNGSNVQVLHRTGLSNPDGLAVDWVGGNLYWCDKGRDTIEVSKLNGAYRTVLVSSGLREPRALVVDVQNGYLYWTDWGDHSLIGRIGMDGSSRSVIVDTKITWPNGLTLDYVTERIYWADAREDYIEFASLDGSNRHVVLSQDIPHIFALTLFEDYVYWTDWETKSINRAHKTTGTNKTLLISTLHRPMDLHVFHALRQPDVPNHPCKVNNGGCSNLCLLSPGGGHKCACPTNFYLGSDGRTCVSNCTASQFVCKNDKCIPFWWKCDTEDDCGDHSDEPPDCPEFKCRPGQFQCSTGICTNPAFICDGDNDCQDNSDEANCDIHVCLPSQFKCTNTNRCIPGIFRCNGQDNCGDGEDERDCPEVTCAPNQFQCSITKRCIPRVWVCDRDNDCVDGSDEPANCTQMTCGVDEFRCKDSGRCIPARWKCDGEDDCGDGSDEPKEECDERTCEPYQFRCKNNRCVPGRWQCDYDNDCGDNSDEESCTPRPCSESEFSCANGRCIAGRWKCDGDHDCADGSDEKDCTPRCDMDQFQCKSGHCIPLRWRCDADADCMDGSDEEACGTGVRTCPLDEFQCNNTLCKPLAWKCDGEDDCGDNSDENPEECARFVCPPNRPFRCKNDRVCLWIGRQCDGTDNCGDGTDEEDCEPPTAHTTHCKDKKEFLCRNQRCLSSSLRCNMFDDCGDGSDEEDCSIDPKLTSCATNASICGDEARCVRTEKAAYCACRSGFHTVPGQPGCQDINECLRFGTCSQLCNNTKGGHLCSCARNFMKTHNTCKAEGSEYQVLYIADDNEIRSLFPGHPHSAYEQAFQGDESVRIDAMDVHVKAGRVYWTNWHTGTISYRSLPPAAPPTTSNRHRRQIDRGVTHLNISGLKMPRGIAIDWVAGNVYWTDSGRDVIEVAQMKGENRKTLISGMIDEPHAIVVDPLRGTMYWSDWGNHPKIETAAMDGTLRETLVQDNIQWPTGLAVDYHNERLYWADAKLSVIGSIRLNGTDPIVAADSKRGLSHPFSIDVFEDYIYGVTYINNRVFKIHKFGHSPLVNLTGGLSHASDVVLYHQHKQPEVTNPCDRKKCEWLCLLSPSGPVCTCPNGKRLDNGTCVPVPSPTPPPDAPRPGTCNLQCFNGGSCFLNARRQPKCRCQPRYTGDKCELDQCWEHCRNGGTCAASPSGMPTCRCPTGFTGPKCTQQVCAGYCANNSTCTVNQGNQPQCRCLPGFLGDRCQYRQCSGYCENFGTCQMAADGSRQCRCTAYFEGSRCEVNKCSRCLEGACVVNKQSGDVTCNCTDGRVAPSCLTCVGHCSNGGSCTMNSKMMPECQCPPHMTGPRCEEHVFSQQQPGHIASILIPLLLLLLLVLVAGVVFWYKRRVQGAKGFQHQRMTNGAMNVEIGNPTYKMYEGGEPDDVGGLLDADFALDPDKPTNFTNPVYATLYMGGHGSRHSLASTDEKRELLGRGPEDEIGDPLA

Substance: SARS-CoV-2 trimeric spike protein, stabilized in prefusion conformation (from UniProt P0DTC2 14-1273) (natural protein)
- Kd: 72 nM
- koff: 0.00034 s⁻¹
- kon: 4800 M⁻¹ s⁻¹
